We go through seven molecules from patent publication US20220411521A1 (Ablynx, published 2022).

B1: A0231034A08 (VHH)
VHH: EVQLVESGGDLVQPGGSLRLSCAASGSVFSINDMGWFRQAPGKQRELVADIISRGVTNYADSVKGRFTISGDPAKNTVYLQMNSLKPEDTAVYYCNAHISTGWGRPHNNYWGQGTQVTVSS
notes: Monovalent Nanobody expressed in E. coli with a triple Flag, HIS6 tag; also called A0231PMP034A08; PA0231PMP034A08.1; not shown: C-terminal triple FLAG and HIS6 tag
B2: A0231004B01 (VHH)
VHH: EVQLVESGGGLVQPGGSLRLSCAASGSIFSIDSMGWYRQAPGKQRELVAAITSSTNYADSVKGRFTISRDNAKNTVYLQMNSLKPEDTAVYYCNLEGQAGWGTALINYWGKGTLVTVSS
notes: Monovalent Nanobody expressed in E. coli with a triple Flag, HIS6 tag; also called A0231PMP004B01; PA0231PMP004B01.1; not shown: C-terminal triple FLAG and HIS6 tag
B3: A0231033B02 (VHH)
VHH: EVQLVESGGGLVQPGGSLRLSCAASGTIFSISTMGWYRQAPGKQREVVAVTSGFSTNYSSAVKGRFTLSRDPAKNTVFLQMNSLQPEDTATYYCNAYLSLAWRDPDRDYWGQGTQVTVSS
notes: Monovalent Nanobody expressed in E. coli with a triple Flag, HIS6 tag; also called A0231PMP033B02; PA0231PMP033B02.1; not shown: C-terminal triple FLAG and HIS6 tag
B4: A0231052A08 (VHH)
VHH: EVQLVESGGGLVQAGGSLRLSCVASGSISSITAMGWHRQAPGAQREGVAVISRSGATMLVDSVKGRFTIVQDNAKNTVYLQMNSLKVEDTAVYGCSAITQGRTYWGQGTLVTVSS
notes: Monovalent Nanobody expressed in E. coli with a triple Flag, HIS6 tag; also called A0231PMP052A08; PA0231PMP052A08.1; not shown: C-terminal triple FLAG and HIS6 tag
B5: A0231003D11 (VHH)
VHH: EVQLVESGGGLVQAGESLRLSCAASGSIFSIDAMGWYRQAPGKQRELVAEISDHTTYGDSVKGRFTISRGNAENTVALQMNSLKPEDTGVYYCNVHHQRGWGTSITVTWGQGTQVTVSS
notes: Monovalent Nanobody expressed in E. coli with a triple Flag, HIS6 tag; also called A0231PMP003D11; PA0231PMP003D11.1; not shown: C-terminal triple FLAG and HIS6 tag
B6: A0231005A03 (VHH)
VHH: EVQLVESGGGLVQPGGSLRLSCAASETIFSIDSMAWYRQAPGKQRELVAAITGGGSPNYADSVKGRFTISSDVAKRTVYLQMNSLKPEDTAVYYCNAEGQAGWGTALMDYWGKGTLVTVSS
notes: Monovalent Nanobody expressed in E. coli with a triple Flag, HIS6 tag; also called A0231PMP005A03; PA0231PMP005A03.1; not shown: C-terminal triple FLAG and HIS6 tag
B7: A023100129 (VHH)
chain: DVQLVESGGGVVQPGGSLRLSCAASGSIFSIDSMGWYRQAPGKQRELVAAITSSTNYADSVKGRFTISRDNSKNTVYLQMNSLRPEDTALYYCNLEGQAGWGTALINYWGQGTLVTVSSGGGGSGGGSEVQLVESGGGVVQPGGSLRLSCAASGSIFSIDSMGWYRQAPGKQRELVAAITSSTNYADSVKGRFTISRDNSKNTVYLQMNSLRPEDTALYYCNLEGQAGWGTALINYWGQGTLVTVSSGGGGSGGGSEVQLVESGGGVVQPGGSLRLSCAASGSIFSIDSMGWYRQAPGKQRELVAAITSSTNYADSVKGRFTISRDNSKNTVYLQMNSLRPEDTALYYCNLEGQAGWGTALINYWGQGTLVTVSSGGGGSGGGSEVQLVESGGGVVQPGGSLRLSCAASGSIFSIDSMGWYRQAPGKQRELVAAITSSTNYADSVKGRFTISRDNSKNTVYLQMNSLRPEDTALYYCNLEGQAGWGTALINYWGQGTLVTVSSGGGGSGGGSEVQLVESGGGVVQPGGSLRLSCAASGSIFSIDSMGWYRQAPGKQRELVAAITSSTNYADSVKGRFTISRDNSKNTVYLQMNSLRPEDTALYYCNLEGQAGWGTALINYWGQGTLVTVSSGGGGSGGGGSGGGGSGGGGSGGGGSGGGGSGGGGSEVQLVESGGGVVQPGGSLRLSCAASGFTFRSFGMSWVRQAPGKGPEWVSSISGSGSDTLYADSVKGRFTISRDNSKNTLYLQMNSLRPEDTALYYCTIGGSLSRSSQGTLVTVSSA

In one assay the target is T1, human GITR (human, UniProt Q9Y5U5 26-241).
T1 construct: also called glucocorticoid-induced TNFR family-related receptor; TNFRSF18
T1 sequence: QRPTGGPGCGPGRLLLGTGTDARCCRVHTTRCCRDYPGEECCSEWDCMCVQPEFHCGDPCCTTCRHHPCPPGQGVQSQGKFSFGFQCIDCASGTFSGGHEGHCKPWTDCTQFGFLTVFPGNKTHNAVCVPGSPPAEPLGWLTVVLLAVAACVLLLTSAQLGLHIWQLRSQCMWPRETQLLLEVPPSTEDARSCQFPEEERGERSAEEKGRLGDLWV
The experiment in a line: flow cytometry on activated human T cells, anti-FLAG detection. The procedure: Binding of purified monovalent anti-GITR Nanobodies to human GITR expressed on activated T cells was evaluated in flow cytometry. For this purpose, PBMCs from healthy donors were cultured with Dynabeads® Human T-Activator CD3/CD28 (Gibco—Life Technologies #11131D) for 7 days in a 1/2 bead/cell ratio.
Dilution series of Nanobodies starting from […] were applied to the cells. Nanobodies were allowed to associate for 30 minutes at 4° C. in FACS buffer (PBS supplemented with 10% FBS and 0.05% azide). Cells were washed by centrifugation and probed with anti-FLAG antibodies (Sigma F1804) for 30 minutes at 4° C., to detect bound Nanobody. […] Cells were washed and incubated with TOPRO3 to stain for dead cells which were subsequently removed during the gating procedure. The cells were then analysed via a BD FACSArray.
(In general: Flow cytometry measures light scatter and fluorescence of single cells or particles in a stream.)
As to B1, the EC50 – broadly, the concentration that produces a half-maximal response – came to 0.54 nM.

The molecule B2 had an EC50 of 0.61 nM.

With B3, a half-maximal response (EC50) required 21 nM.

In turn, B4 registered an EC50 of 23 nM.

With B5, the EC50 amounted to 1.3 nM.

The molecule B6 showed an EC50 of 0.79 nM.

The next assay deals with T1, human GITR. The experiment in a line: cell-based or functional assay.
In the case of B7, the “EC50, HEK293_NF-κB luc reporter” value worked out at 0.0118 nM and the “Efficacy (%), human GITR ligand = 100%, HEK293_NF-κB luc reporter” value turned out to be 146%.

In a further assay the target is T2, human GITR-Fc (Enzo Life Sciences, ALX-522-061-C050) (human, UniProt Q9Y5U5 26-162).
T2 construct: Bought protein; not shown: Fc part of the bought fusion protein; not described
T2 sequence: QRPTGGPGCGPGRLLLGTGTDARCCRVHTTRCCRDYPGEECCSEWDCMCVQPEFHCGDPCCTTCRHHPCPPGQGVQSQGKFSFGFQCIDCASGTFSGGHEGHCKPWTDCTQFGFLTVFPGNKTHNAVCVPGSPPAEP
The experiment in a line: ProteOn XPR36; human GITR-Fc amine-coupled on GLC chip, Nanobody injected at 6 concentrations. The procedure:
Affinity was determined on the Proteon XPR36. Briefly, after human GITR-Fc (Enzo Life Sciences, ALX-522-061-C050) was immobilized on a GLC chip via amine coupling, a range of 6 concentrations of different monovalent Nanobodies (representing each family) were injected. The Ko values were determined by using the calculated association rate and dissociation rate constants (Table 1) (ProteOn Manager 3.1.0, Version 3.1.0.6 (2011)).
As for B1, the Kd (commonly the constant that tells how readily two partners part at equilibrium) came out at 2.5 nM; the koff (as a rule, a measure of how fast the partners let go of each other) amounted to 0.00067 s⁻¹; the on-rate constant (kon) – broadly, the rate constant with which the complex forms – is 270000 M⁻¹ s⁻¹.

B2 yielded a Kd of 2.6 nM, a koff of 0.0027 s⁻¹ and a kon of 1.1e+06 M⁻¹ s⁻¹.

With B3, the Kd was determined as 16 nM, the koff was 0.008 s⁻¹ and the kon was 490000 M⁻¹ s⁻¹.

As to B4, the dissociation constant Kd came out at 24 nM, the koff was found to be 0.00097 s⁻¹ and the on-rate (kon) was determined as 41000 M⁻¹ s⁻¹.

As to B5, the Kd was 4.6 nM, the koff stood at 0.0029 s⁻¹ and the kon was 630000 M⁻¹ s⁻¹.

For B6, the affinity, expressed as Kd, was 3.4 nM; the koff came to 0.0023 s⁻¹; the kon amounted to 680000 M⁻¹ s⁻¹.

Another assay has as its target T1, human GITR. Kind of assay: cell-based or functional assay. This is another data set of the same source.
For the molecule B7, the “EC50, IFN-γ read-out, human T cell activation assay” value amounted to 0.0515 nM and the “Maximal efficacy (%), human GITR ligand = 100%, IFN-γ read-out” value stood at 108%.
